Assay [1] deals with T1, C-terminal-truncated Rap1 (amino acids 1-169), GST fusion, loaded with mGppNHp (Dictyostelium discoideum, UniProt P18613 1-169).
T1 sequence: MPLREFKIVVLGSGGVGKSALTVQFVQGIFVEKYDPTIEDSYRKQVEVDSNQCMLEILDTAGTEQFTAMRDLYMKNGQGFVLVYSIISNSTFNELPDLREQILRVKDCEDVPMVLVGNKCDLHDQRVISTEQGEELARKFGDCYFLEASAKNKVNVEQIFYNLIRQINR
Nature of the assay: guanine nucleotide dissociation inhibition.

Assay [2] deals with RasG, GST fusion, loaded with mGppNHp (Dictyostelium discoideum, UniProt P15064 1-189). Kind of assay: guanine nucleotide dissociation inhibition.
Sequence of RasG, GST fusion, loaded with mGppNHp (P15064 whole entry, the tested form may be a part): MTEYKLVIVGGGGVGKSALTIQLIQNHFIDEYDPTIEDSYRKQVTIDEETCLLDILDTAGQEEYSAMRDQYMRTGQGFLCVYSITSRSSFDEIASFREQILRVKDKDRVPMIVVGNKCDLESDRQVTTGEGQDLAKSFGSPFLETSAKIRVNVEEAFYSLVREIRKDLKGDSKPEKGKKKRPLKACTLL

B1: PI3K2-RBD (RBD domain of PI3K2, amino acids 757-918) (domain or fragment)
chain: GHIQAELEIFELIGTSFTRVLDQGQEVVSFRRDFAQFRLSNFTSTRNDLSQMIYVSSEPLPLTIPNKITIMVLLPGDGKIIKRVDCCPNSSVGDVKKEIFKKFAMIDRVHTQGKTQDDFVLKVTGFREYILCIHELGNLTSRQRFYPTGSGGDFSLMDYDYI
The Kd is the concentration at which binding is half-saturated. Higher therefore signals lower affinity. For the molecule B1, the figures for the Kd in assay [1] and in assay [2] were 40 µM and 24 µM, respectively.

These data come from publication PMC2836974 (Molecular Biology of the Cell, 2010).
